Test: soluble on expression in E. coli; label from the status in PepcDB or PDB records
For “MLTVDLSGKKALVMGVTNQRSLGFAIAAKLKEAGAEVALSYQAERLRPEAEKLAEALGGALLFRADVTQDEELDALFAGVKEAFGGLDYLVHAIAFAPREAMEGRYIDTRRQDWLLALEVSAYSLVAVARRAEPLLREGGGIVTLTYYASEKVVPKYNVMAIAKAALEASVRYLAYELGPKGVRVNAISAGPVRTVAARSIPGFTKMYDRVAQTAPLRRNITQEEVGNLGLFLLSPLASGITGEVVYVDAGYHIMGMELEG”, the “soluble on expression in E. coli” value was “soluble”.
With “MLVFIDDGSTNIKLQWQESDGTIKQHISPNSFKREWAVSFGDKKVFNYTLNGEQYSFDPISPDAVVTTNIAWQYSDVNVVAVHHALLTSGLPVSEVDIVCTLPLTEYYDRNNQPNTENIERKKANFRKKITLNGGDTFTIKDVKVMPESIPAGYEVLQELDELDSLLIIDLGGTTLDISQVMGKLSGISKIYGDSSLGVSLVTSAVKDALSLARTKGSSYLADDIIIHRKDNNYLKQRINDENKISIVTEAMNEALRKLEQRVLNTLNEFSGYTHVMVIGGGAELICDAVKKHTQIRDERFFKTNNSQYDLVNGMYLIGN” the “soluble on expression in E. coli” value was “soluble”.
For “MLVGNIVKEVLAYKKGQIQQKLSSPQAFVSSRFQEKLQSEPAKETKGTTQLAKVEDMSQPVQSTKIETVVNKPEQSIHKVEEASKPEEKAETKNVDEVQVAQKEFERRFPETKNEAADTWGLTKKYNIQKIRSSNEGKYEDIIDRVSHTYGIPKTLIQKMIEVESDFNPKTVSHAGAKGLMQLMPANVKEMGIKNPFSPAESIEGGVKELSGYLKKNNGDLVLALASYNAGPGNVRKYGGVPPFKETQGYIKKILNIDVSK”, the “soluble on expression in E. coli” value was “not soluble”.
With “MLVPRGSMAPIGSVVIVGRIILSGRGGPITAYSQQTRGLLGCIITSLTGRDKNQVEGEVQVVSTATQSFLATCVNGACWTVFHGAGSKTLAGPKGPITQMYTNVDQDLVGWPAPPGARSLTPCTCGSSDLYLVTRHADVIPVRRRGDTRGSLLSPRPISYLKGSSGGPLLCPSGHVVGIFRAAVCTRGVAKAVDFIPVESMETTMR” the “soluble on expression in E. coli” value was “soluble”.
In the case of “MLVTKKEISVANIGEELWRFSNSSYTTGSPWTETQFAEDFAQENSEYLFLVENGQWLGYIAYHFILDEAEISHVVVNGQKQHQGIGCQLMKAFKEYVKSRDITQIFLEVRESNILAQKLYEKTGFRKVAVRKNYYKEPQENAFVMCAKLRKEAQ”, the “soluble on expression in E. coli” value was “not soluble”.
With “MLVTTTERISGQEYEIIGEVFGLTTRSKNMFKDLGAGLKSVVGGEIKGYTDMQREARDQAIERLKAEASKLGADAVVMMRFDSGTIGTDMQSVVAYGTAVKYILEHHHHHH” the “soluble on expression in E. coli” value was “not soluble”.
With “MLWTDCLTRLRQELSDNVFAMWIRPLVAEETTDSLRLYAPNPYWTRYIQEHHLELISILVEQLSEGRIRQVEILVDSRPGAILSPAEQPATTTAALSSTPVVPQRVKKEVVEPAATQSNKILNSKKRLLNPLFTFSLFVEGRSNQMAAETCRKVLTQLGASQHNPLFLYGPTGLGKTHLMQAVGNALLQAKPNARVMYMTAESFVQDFVSSLQKGKVEEFKKNCRSLDLLLVDDIHLLAGKEASLVEFFYTFNALLDESKQIILTSDRYPKELTELDPRLVSRFSWGLSVGVEPPDIETRIEILLKKAENSGVDLPRNCALFIAQQVVANVRELEGALNKVVAIARFKGSQIDLDVVRESLKDVLAIRARTISVENIQRVVSEYFRIPLKELIGPKRTRIYARPRQLAMGLARELTGDSFPEIGMAFGGRDHSTVMHACEKVQSLKQEDPIFNEDYKNLLRLLQSLEHHHHHH” the “soluble on expression in E. coli” value was “not soluble”.
In the case of “MLYANKTVGNTSYKLSKKSIKEQTMLQKNKDLLIEIATRDVKSVFAYFKTTRDGLSMKEAQKRIQVYGRNELTSKRALLAEVMMKLGGMIPGFSKQRVCDELQRETITVSRVECSSSTGLNSELKMMEIPVQELVPGDMIFLSAGDAVPADVRIIYADDLLVNESVLTGNEANIEKFESCYHLERKRFIPLKRMKDYNPLELENVCFKGSHIVSGNAKAIVVSTGKNTYSGILHTCCSRTS”, the “soluble on expression in E. coli” value was “not soluble”.
In the case of “MLYASLCRTPVFGILAQILCDIYSSIGCALSSFRSPLGPPFDFLFDTCSCQTARCFNKSKGVLITGSKLKAFRNPQPSWGFSVHKQVAALWQQLLSTGNVTRETDFFQQGGDSLLATRLTGQLHQAGYEAQLSDLFNHPRLADFAATLRKTDVPVEQPFVHSPEDRYQPFALTDVQQAYLVGRQPGFALGGVGSHFFVEFEIADLDLTRLETVWNRLIARHDMLRAVVRDGQQQVLEQTPRWVIPAHILHTPEEALQVREKLAHQVLNPEVWPVFDLQVGYVDGMPARLWLCLDNLLLDGLSMQILLAELEHGYQYPQQLPPPLPVTYRDYLQQPAIQSLNADSLAWWQAQLDDIPPAPALPLRCMPQDVETPRFARLNGALDSTRWHRLKKRAADAHLTPSAVLLSVWSTVLSAWSAQPEFTLNLTLFDRRPLHPQINQILGDFTSLMLLSWHPGESWLHSAQSLQQRLSQNLNHRDVSAIRVMRQLAQRQNVPAVPMPVVFTSALGFEQDNFLARRNLLKPVWGISQTPQVWLDHQVYESEGELRFNWDFVAALFPAGQVERQFEQYCTLLNRMTEDENSWHLPLAALVPPVKQAEQGTERTSRVCPEHSQSHIAADESTVSLICDAFREVVGESVTPAQNFFEAGATSLNLVQLHVLLQRHEFSTLTLLDLFTHPSPAALAAYLTSVATVEKTKRSRPVRRRQRRI”, the “soluble on expression in E. coli” value was “not soluble”.
With “MLYVVGIGPGNEEYFTKEAENALNSVDLIVCYTGYKKYIERFDTEIYVSGMTKEVERVEYALKEAENKNVALVSNGDATIYGLASLAYELNEKNLHNVTINVVSGL” the “soluble on expression in E. coli” value was “not soluble”.
With “MMDEEGAALPVWSRRLQQLTERSGLSQAELARRAGMSRDTYNRYCRGLTRPPRKKVLALAELFGVETWEIDPLEAGIAALRRESERSLEALGEQPIPSTPPYTLSPPSSGDPRMMHLRVDVDVRIETALRIAELLNREGSS” the “soluble on expression in E. coli” value was “not soluble”.
With “MMEADKKFLELVKKWGVLSVVSSWQDRLLRDICALIVECVLFDKTCAVAPAYFTLIAMNSSKFSTQQWNIFSNFLATASTQSLRHVRLLNSFFVRSSTDENGDIGDVTSYNPGKLTFRQLIAAVQVLSSQKEKSLGQKEEEDLSSGVALIMLSHGADTHRLEVHSIISSLFTHCLLLQLIASLLLSEDSNPKLKATLIGSTSPIDPKLDDSIYPILYNILNESSETSLDFDSRPAVGSLLSRMLGIKHANLLKALVSSNLTKTMSLLRRFEKTKNTELLPEIAKAVKSRSVDLKSVEFEVSTRRSAFVTREHAITQYHLVPVDNGEENAYKLVSQEFVDGALSEYDKHRDRLKPFIPDRRNPFQHAIDDSDTVSIDSKTEDFDEIRLAAYRDICLIPLRYVSDNLLREHLPDFLPPVTQIVLSSPDLAVRQLAVDFMSRLA” the “soluble on expression in E. coli” value was “not soluble”.
In the case of “MMEIRLTELKDLPLVMEIYDYARAFMRANGNATQWIDGYPSESFIRQEIEDGHSFVCTDEQGEILGTFCFILGEDPTYLNIYEGAWLNDEPYGVIHRMATSGKRKGVSEACLNWCFEHFENIRVDTHRDNKVMQHILAKYGFQRCGIIYVKNGTERIAYQRIL”, the “soluble on expression in E. coli” value was “not soluble”.
For “MMGNDSYSSNRGSSRDVLSFLQNFLGGFYAKYGIEVKLVGGLSLSKFYYAFDAERNQFLARHFLPVLSYIKKDFNARAALGIVNVDIYEPGFNFIFGLAHPGLKVAVVSLYRLYPEFYGNPPDRKLLKERALKEVMHELGHVFGLGHCPNPKCVMHFSNSIIDTDIKSWMYCESCLRKLEKNLARSHVLEHHHHHH”, the “soluble on expression in E. coli” value was “not soluble”.
For “MMGSSSQELQTALTDVSKTCHHLWEENKDLQGRFVNELGELQRLQMVIAQLEQQQRLENVFTVKQQMTELQKRAATLYEHLTQKRNDIVIKLNDGTNFATMLQTQLIGEKLFSWKNAQKLAQIGMPFDNREQLLDEIQIEFEFLADQNWQLNMFSCWMLDLLRRAPQLNDGLAQATIGKLTAITEQLNKLLFMLVSQSFIVSVQPEPVLKTQHKFVTEVRLLIGDKLGIRQHLVNTNVSVKIIAEDEAKQLSVDYDAHKEIRNNKTVGTISNDFEKLTMNERGHLAAKFNNSKLTRIAHRKPPPKGASDLKCAASMQAATDQKYALLFFITPFQMGNLSKEEQFDVWTLSLPIMVTVHGSQDCDAQVAILWHRAFASISRNPNTTDVTAVTWDNLAIMLRNKFSLFTGARRPLSDSDLAYLSEKMLMPNVADQKPITFHRFAKQAMRDDLPFSFWEWFFSIMQLIKQKLLKFWDEGWCIGFISKNDASQSMMMCQHSSFLLRFSDSQTGAVSIGFVCEEADGQKIPFHLAPFTIKDLDQLSLASRIASCPQLKDIRYMYPAIDKEEMLRFFESEERHRVGGGDSPTGYIQSEIVMVAKTNGNFRRMSNAPSMFGADSPSPLSVQSKLDWSPGEVHQNHMMEMSDELGQILTVSDMSGDVETLLGPAFKNNITNYNPHDGNHQHNLHFVDMSQQGMMQQHHNQFYPS”, the “soluble on expression in E. coli” value was “not soluble”.
With “MMKPNIDFKRLKAYVQANGSYSLVVKGDSIEVHFSPNFPEAIPHLPDNLPVEHIMYGKVENGIVYFYRFETISSFGTTYNDLTDDDPIMEWLKYI” the “soluble on expression in E. coli” value was “not soluble”.
With “MMKQSFLANERIYLRAVEPEDLDLMYEMENDPSMWDISSFTVPYSRFVLKQYIEGSQSDMFADKQLRLMIMRRKDNCTLGTVDITDFVPLHSRGAVGIAVHSNYRQEGYASDALKLLCEYAFNFLFIKQLYAHIAVDNEPSLRLFNSCGFTQCGVLKEWLLTHEGYKDAVLVQCMNPKR” the “soluble on expression in E. coli” value was “not soluble”.
For “MMKSIATLISVVLCSFSAWAQTITAAQDPWPPFVMENAQQKGLSVDIVTAAFATQGYTVEFTIMPWSRALNDVKEGKIDILPATWFTQERTAYLTYSDNYLTNQVKFIKKAGDNFEFAGLASLNGKKVGIVRGYGYGDEFMNDPSFFRPESTDLKQNLQKLQAGRIDLAVEDELVAKSIITEAGMNLADFAFTNQAISENPLHVTSGKANPRSEELVAAFNKGLAEIKANGTFDKLLADYGIK”, the “soluble on expression in E. coli” value was “not soluble”.
For “MMKTMRIAAIPGDGIGKEVLPEGIRVLQAAAERWGFALSFEQMEWASCEYYSHHGKMMPDDWHEQLSRFDAIYFGAVGWPDTVPDHISLWGSLLKFRREFDQYVNLRPVRLFPGVPCPLAGKQPGDIDFYVVRENTEGEYSSLGGRVNEGTEHEVVIQESVFTRRGVDRILRYAFELAQSRPRKTLTSATKSNGLAISMPYWDERVEAMAENYPEIRWDKQHIDILCARFVMQPERFDVVVASNLFGDILSDLGPACTGTIGIAPSANLNPERTFPSLFEPVHGSAPDIYGKNIANPIATIWAGAMMLDFLGNGDERFQQAHNGILAAIEEVIAHGPKTPDMKGNATTPQVADAICKIILR”, the “soluble on expression in E. coli” value was “soluble”.
In the case of “MMLSSNSFSLNLSNEDYIWPLEEDQEETTDSSGPMMLSPPLPEGACFNFEDRNTVYVHSRRPEDTPKSFELYSIPEDLALDSPFPSCEQTTFFTTKPDKSFLLDIKNSSPLNIGRMQNSRS”, the “soluble on expression in E. coli” value was “soluble”.
For “MMNIQVLKVSGNGNINAIADTINKYVIEDGIVHIDAIGIKATYTTVKALIQVVESLVNKGYRFNLRPYYVKVNTAGNDIQPISKTAIRWTLIAKEK”, the “soluble on expression in E. coli” value was “soluble”.
In the case of “MMRCPECSTEGWRVLPLTVGAHVKEGLWSKIKGDFYFCSLESCEVVYFNEQTVFRKGELKTRVGVKEREEPKPVCYCNRVTEKMLLEAAEKFGKEKAVEITGAGKGKWCVVTNPSGRCCHWHLERLGFPVGGEKKAAKRVEIKLDGLTCMGCVSAVKAALEEAGANVVEIGLDRAVVEVDEEAELQKLVEAVEGAGYSARLEKR”, the “soluble on expression in E. coli” value was “not soluble”.
In the case of “MMRTWWLCERTFRARIYVMARERIPEMTINCARERNSTFTSVPTRTWLSSTISAEYVGRNHAHTTPVPANNKDTITTIAEYHCTE”, the “soluble on expression in E. coli” value was “not soluble”.

Source: the DeepSol protein solubility set
